Reference: patent US20250066500A1

Key:
Experiment in all cases: cell-based or functional assay
TGFβ1 (R&D systems) = TGFβ1 (R&D systems) (UniProt P01137)
[1] = target: IL-2Rα, IL-2Rβ and common γ chain on CTLL-2 cells
[2] = target: IL-2Rβ and common γ chain on 32Dβ cells

Chain of UniProt P01137 (P01137 279-390 limits assumed): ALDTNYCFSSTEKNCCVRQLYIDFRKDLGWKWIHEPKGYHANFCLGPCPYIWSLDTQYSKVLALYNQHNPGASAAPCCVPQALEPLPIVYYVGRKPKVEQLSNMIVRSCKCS

## TGFR-Fc (R&D Systems) (Fc fusion)
TGFβ1 (R&D systems)
  IC50 of inhibition of TGFβ1 activity in HEK-Blue TGFβ reporter cells (QUANTI-Blue OD at 620-655 nM): 0.461 nM

## recombinant IL2 (Proleukin) (from UniProt P60568 22-153) (ligand)
[1]
  EC50 of CTLL-2 cell proliferation (WST1, absorbance at 450 nM): 0.253 nM
[2]
  EC50 of 32Dβ cell proliferation (WST1, absorbance at 450 nM): 0.0655 nM

## recombinant IL-2 (from UniProt P60568 21-153) (ligand)
[1]
  EC50 of CTLL-2 cell proliferation (WST1, absorbance at 450 nM): 0.548 nM
[2]
  EC50 of 32Dβ cell proliferation (WST1, absorbance at 450 nM): 0.14 nM

## recombinant IL-15 (from UniProt P40933 49-162) (ligand)
[2]
  EC50 of 32Dβ cell proliferation (WST1, absorbance at 450 nM): 0.0106 nM
